Reference: paper PMC2910063
Where two headings read alike, the source gives them in different places.

Experiments:
[1] = target: T1, FoxM1-DBD (FoxM1C 222-360) (UniProt Q08050 222-360); experiment: fluorescence anisotropy
T1 sequence: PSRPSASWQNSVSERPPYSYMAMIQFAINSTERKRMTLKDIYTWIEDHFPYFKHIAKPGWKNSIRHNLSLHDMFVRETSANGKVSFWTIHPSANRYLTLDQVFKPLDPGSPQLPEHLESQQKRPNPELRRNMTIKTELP

[2] = target: T1, FoxM1-DBD (FoxM1C 222-360); experiment: fluorescence anisotropy; remark: listed apart in the source
[3] = target: T1, FoxM1-DBD (FoxM1C 222-360); experiment: competition fluorescence anisotropy
[4] = target: T2, FoxM1-DBD (FoxM1C 222-360), crystal (UniProt Q08050 222-360); experiment: X-ray crystallography 2.2 A
T2 sequence: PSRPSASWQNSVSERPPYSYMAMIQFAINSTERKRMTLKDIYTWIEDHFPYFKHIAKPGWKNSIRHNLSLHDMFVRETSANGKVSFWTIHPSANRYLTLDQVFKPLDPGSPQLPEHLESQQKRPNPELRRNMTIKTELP

B1: 11 bp consensus, TAMRA (dsDNA)
DNA 1: CCATAAACAAC
DNA 2: GTTGTTTATGG
[1]
  Kd: 7 ± 0.3 µM
[2]
  Kd: 7.5 ± 0.8 µM

B2: 1x (dsDNA)
DNA 1: CCGATTGTTTAGCCCGTGCC
DNA 2: GGCACGGGCTAAACAATCGG
[3]
  IC50: 7 µM

B3: Fm1-2x-19nt-aa/tt (dsDNA)
DNA 1: AAATTGTTTATAAACAGCCCG
DNA 2: TTCGGGCTGTTTATAAACAAT
[4]
  binding result: binds
